This note sets out measurements from paper PMC6391106.

full-length mouse serum-derived FH, sequence (P06909 19-1234): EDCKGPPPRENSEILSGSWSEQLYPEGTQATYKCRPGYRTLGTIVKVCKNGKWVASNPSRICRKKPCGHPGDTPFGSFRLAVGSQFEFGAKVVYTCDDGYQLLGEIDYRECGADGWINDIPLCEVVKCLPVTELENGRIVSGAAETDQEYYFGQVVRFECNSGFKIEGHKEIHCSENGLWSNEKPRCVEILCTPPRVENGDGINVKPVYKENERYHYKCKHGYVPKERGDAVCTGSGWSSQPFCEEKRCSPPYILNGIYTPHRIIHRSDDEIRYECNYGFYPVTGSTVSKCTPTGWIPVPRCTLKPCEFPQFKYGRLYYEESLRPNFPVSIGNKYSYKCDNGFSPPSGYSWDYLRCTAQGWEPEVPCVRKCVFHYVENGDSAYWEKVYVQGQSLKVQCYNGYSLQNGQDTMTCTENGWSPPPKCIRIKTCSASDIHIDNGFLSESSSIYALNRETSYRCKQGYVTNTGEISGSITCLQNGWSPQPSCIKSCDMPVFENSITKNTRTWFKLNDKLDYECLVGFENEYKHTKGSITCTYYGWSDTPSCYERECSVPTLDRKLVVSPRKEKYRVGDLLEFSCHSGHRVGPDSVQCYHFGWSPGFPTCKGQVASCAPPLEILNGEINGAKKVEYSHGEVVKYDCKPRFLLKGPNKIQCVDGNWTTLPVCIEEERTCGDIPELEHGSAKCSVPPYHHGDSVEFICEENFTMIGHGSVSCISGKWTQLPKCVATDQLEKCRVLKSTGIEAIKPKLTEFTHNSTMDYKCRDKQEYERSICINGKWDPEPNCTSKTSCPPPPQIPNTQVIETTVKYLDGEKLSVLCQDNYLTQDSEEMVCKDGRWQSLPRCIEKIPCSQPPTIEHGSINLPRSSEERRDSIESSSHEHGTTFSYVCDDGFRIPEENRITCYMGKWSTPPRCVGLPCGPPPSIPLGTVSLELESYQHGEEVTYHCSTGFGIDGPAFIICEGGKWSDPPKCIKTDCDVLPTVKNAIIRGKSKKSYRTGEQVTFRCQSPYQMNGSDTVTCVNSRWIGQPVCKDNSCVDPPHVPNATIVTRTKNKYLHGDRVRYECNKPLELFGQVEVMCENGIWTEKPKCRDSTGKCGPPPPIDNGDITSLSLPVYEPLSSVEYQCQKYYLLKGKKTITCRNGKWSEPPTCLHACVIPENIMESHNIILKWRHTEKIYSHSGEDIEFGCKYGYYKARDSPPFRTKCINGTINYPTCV

For this assay, the target named is WT murine C3b (mouse) (UniProt P01027). In words: SPR; BIAcore S200; murine C3b (WT or Asn1115) amine coupled to a CM5 chip (930 ± 10 RU); analytes in 2-fold dilution series in HBST (10 mM HEPES, 150 mM NaCl, 0.005% Tween-20, pH 7.4), 30 μl/min for 200 s; steady-state model. On the technique in general: In SPR one partner is held on a chip, and binding of the other changes the refractive index at the surface.
“recombinant murine Crry SCRs 1–5 (domain or fragment)”: the Kd (commonly the constant that tells how readily two partners part at equilibrium) was found to be 3.2 µM.
The value for “recombinant human FH SCRs 19–20 (domain or fragment)” was 9.4 µM; that for “recombinant murine FH SCRs 1–5 (domain or fragment)” was 2.9 µM; that for “full-length mouse serum-derived FH (from UniProt P06909 19-1234) (natural protein)” was 1.4 µM.
